From US20110142849A1

Biological target: recombinant human Pcsk9 (aa 31-692) with C-terminal his6 tag (human) (UniProt Q8NBP7)
Assay: TR-FRET, disruption of hLDL-R-Eu and hPcsk9-AF

recombinant human Pcsk9 (aa 31-692) with C-terminal his6 tag (human), sequence (Q8NBP7 other isoform, or with tags, fused parts or gaps limits assumed, form in doubt): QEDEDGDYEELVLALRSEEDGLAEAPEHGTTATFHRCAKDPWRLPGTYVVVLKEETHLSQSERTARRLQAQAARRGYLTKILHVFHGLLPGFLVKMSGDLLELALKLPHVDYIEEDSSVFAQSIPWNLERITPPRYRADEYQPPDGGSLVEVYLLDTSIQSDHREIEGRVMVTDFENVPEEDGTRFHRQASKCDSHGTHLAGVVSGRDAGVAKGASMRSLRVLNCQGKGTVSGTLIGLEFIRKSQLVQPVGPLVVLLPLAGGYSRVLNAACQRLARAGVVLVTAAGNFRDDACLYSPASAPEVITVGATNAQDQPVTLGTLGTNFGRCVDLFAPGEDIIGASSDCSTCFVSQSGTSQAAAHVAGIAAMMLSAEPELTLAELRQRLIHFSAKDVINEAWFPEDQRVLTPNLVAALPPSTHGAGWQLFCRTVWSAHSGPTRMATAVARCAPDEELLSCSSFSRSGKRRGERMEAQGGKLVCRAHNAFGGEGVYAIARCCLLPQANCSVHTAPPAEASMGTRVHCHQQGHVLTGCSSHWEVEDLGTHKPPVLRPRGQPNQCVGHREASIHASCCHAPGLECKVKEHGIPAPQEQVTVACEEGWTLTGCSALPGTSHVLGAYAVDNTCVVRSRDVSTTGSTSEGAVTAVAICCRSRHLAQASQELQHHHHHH

**Q.** For EGF-A peptide, which IC50 is on record?
**A.** 2.5 µM
